From PMC6981688

What was measured:
[1] = Flag IP, WB, increasing OGA; conditions: glycan lost; control: full-length NSL3wt
[2] = Flag IP, anti-HA-ubiquitin WB, increasing OGT1, UBE2S, MG132; conditions: glycan lost; control: full-length NSL3wt
[3] = WB of histone marks in 293T; conditions: glycan lost; control: NSL3-3wt overexpression
[4] = NSL3 ubiquitination: Flag IP, anti-HA-ubiquitin WB, MG132; conditions: glycan gained; control: NSL3 alone / untreated
[5] = Flag-OGT1 IP, WB for NSL3, MOF, MCRS1, PHF20, NSL1, NSL2; conditions: glycan lost; control: NSL3-3wt overexpression
[6] = Flag IP, anti-HA-ubiquitin WB, increasing OGT1, NSL3-3 truncation; conditions: glycan lost; control: NSL3-3wt
[7] = A549 colony formation; conditions: glycan lost; control: NSL3-3wt overexpression

With “NSL3 (nonspecific lethal protein 3): NSL3 T755A” the “other: OGA-induced increase of NSL3 ubiquitination and UBE2S binding” value [1] was “decreases” and the “other: OGT1-dependent decrease of NSL3 ubiquitination” value [2] was “abolishes”.

In the case of “NSL3 (nonspecific lethal protein 3): Flag-NSL3-3 T755A”, the “other: reduction of global H4 acetylation/H3K4me2 by NSL3-3 overexpression” value [3] is reported as “abolishes”.

In the case of “NSL3 (nonspecific lethal protein 3): OGT1 co-transfection”, the degradation_or_half_life [4] is reported as “increases”.

For “NSL3 (nonspecific lethal protein 3): NSL3-3 T755A”, the “other: loss of NSL complex subunits from Flag-OGT1 IP caused by NSL3-3” value [5] was “abolishes” and the degradation_or_half_life [6] was “changes”.

In the case of “NSL3 (nonspecific lethal protein 3): NSL3-3mt (T755A)”, the “other: colony suppression by NSL3-3 overexpression” value [7] is reported as “abolishes”.

In the case of “NSL3 (nonspecific lethal protein 3): thiamet-G (TMG)”, the degradation_or_half_life [4] is reported as “decreases”.
